In patent US20250304644A1, “PEPTIDES TRIPLE AGONISTS OF GIP, GLP-1 AND GLP-2” (BAINAN BIOTECH APS, priority 2021, published 2025):
Read-outs that look alike come from different tables or passages of the source. *1 amine or outer side, *2 acyl side, *3 side chain or, on linkers, in order; H or OH if unused. Where no end group is shown, it is not given here. Side-chain parts run from the residue outwards. [ ]: non-standard residue; d: D form. The star is where a group is joined. C18 diacid = O=C(O)CCCCCCCCCCCCCCCCC(=O)*; γGlu = O=C(O)[C@H](CCC(=O)[*:2])N[*:1]; AEEA = NCCOCCOCC(=O)O; Aib = CC(C)(N)C(=O)O

T1: human SNAP-tagged GIPR (Homo sapiens, UniProt P48546)
T1 construct: host or cells: HEK293A
T1 sequence (P48546 22-466): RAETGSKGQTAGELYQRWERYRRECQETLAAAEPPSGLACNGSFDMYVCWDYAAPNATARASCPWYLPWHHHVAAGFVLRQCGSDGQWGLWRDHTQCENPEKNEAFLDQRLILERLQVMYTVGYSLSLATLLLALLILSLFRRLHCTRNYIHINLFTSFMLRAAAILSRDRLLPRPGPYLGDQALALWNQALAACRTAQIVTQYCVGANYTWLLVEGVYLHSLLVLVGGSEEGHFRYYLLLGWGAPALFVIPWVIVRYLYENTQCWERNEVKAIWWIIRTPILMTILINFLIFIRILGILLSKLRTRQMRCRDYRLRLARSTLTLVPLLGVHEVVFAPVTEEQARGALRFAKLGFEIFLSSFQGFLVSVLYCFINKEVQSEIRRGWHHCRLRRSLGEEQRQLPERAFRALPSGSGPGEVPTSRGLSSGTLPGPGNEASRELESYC

T2: human GLP-2R (Homo sapiens, UniProt O95838)
T2 construct: host or cells: COS-7
T2 sequence (O95838 1-553): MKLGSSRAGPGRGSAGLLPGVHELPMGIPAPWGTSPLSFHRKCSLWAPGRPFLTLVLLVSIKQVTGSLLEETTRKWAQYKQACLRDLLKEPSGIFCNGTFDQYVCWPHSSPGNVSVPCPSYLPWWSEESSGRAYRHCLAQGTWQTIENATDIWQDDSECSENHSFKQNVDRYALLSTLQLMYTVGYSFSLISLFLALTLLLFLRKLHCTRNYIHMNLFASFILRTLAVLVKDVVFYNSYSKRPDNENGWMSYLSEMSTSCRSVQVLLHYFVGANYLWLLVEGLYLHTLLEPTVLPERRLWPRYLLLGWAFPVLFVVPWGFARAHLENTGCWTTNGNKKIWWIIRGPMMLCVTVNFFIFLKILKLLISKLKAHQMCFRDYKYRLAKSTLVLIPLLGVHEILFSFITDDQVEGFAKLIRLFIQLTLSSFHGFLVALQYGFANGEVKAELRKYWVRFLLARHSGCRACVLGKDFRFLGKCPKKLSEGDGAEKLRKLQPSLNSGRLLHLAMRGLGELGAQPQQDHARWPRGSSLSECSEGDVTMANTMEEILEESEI

T3: human GIPR (Homo sapiens, UniProt P48546)
T3 construct: host or cells: COS-7
T3 sequence (P48546 22-466): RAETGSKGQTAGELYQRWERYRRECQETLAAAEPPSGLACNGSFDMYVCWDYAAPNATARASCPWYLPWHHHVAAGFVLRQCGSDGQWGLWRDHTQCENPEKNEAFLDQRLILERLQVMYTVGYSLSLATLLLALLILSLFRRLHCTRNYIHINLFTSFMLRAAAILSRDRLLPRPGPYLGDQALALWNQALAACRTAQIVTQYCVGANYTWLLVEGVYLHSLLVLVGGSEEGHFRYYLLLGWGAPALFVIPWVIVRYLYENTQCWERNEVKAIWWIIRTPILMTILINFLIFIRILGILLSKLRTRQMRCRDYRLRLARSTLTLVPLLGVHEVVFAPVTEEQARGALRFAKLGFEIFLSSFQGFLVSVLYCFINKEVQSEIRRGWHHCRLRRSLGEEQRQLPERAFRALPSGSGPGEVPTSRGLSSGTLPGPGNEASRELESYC

T4: human SNP-tagged GLP-2R (Homo sapiens, UniProt O95838)
T4 construct: expressed in transfected cells; host or cells: HEK293A
T4 sequence (O95838 1-553): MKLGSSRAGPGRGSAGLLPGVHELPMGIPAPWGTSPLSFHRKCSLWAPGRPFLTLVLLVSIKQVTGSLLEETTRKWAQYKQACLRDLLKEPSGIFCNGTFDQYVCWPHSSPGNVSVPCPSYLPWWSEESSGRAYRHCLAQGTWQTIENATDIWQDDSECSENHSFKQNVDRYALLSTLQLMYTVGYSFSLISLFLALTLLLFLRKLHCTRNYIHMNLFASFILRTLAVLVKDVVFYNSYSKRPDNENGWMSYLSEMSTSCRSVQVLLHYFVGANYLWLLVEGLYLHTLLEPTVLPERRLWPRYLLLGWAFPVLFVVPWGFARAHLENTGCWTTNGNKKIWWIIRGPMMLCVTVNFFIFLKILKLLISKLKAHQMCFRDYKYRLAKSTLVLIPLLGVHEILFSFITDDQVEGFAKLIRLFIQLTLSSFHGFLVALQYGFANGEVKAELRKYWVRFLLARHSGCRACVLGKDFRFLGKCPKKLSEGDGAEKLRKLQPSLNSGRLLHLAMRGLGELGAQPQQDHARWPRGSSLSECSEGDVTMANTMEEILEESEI

T5: human GLP-2R (glucagon-like peptide-2 receptor) (human, UniProt O95838 1-553)
T5 sequence (looked up): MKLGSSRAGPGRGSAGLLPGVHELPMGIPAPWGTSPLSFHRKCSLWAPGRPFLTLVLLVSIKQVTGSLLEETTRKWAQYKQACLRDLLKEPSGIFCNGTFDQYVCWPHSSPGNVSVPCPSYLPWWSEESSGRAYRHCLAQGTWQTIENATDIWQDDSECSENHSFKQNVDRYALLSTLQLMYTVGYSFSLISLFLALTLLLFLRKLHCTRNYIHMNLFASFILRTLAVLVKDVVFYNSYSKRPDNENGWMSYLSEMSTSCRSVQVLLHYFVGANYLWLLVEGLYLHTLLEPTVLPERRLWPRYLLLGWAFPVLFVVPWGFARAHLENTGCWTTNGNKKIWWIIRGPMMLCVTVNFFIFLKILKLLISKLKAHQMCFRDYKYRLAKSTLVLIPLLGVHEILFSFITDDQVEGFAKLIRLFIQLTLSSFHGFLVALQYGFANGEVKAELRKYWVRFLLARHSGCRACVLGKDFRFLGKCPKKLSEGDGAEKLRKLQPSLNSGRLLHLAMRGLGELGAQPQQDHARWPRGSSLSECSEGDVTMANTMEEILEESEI

T6: human GIPR (glucose-dependent insulinotropic polypeptide receptor) (human, UniProt P48546 22-466)
T6 sequence (looked up): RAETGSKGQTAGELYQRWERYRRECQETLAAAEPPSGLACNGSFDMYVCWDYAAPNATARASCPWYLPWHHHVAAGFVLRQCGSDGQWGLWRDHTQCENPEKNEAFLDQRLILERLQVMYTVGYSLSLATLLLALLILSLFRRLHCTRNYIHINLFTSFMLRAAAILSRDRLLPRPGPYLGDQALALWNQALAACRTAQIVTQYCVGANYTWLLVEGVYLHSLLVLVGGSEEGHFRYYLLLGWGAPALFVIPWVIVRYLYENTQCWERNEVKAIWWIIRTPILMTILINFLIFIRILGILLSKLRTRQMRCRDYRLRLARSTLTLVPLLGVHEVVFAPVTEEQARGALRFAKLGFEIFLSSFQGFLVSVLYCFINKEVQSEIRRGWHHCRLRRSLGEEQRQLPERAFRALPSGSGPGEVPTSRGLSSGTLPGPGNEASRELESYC

T7: Human N-terminally SNAP-tagged GIPR (human, UniProt P48546 22-466, SNAP tag labeled with Tag-Lite SNAP-Lumi4-Tb)
T7 sequence (looked up): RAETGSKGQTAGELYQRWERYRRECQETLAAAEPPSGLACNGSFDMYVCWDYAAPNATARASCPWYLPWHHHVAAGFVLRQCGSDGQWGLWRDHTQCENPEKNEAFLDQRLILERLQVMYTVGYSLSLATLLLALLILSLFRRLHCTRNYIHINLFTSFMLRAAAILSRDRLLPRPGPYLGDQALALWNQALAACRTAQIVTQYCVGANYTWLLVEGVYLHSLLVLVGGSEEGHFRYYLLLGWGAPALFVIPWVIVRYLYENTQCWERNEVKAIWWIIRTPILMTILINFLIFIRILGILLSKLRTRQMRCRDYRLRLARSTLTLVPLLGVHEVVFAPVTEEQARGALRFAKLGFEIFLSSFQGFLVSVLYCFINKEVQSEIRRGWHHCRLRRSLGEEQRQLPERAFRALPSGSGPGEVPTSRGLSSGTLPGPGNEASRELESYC


Key:
human SNAP-tagged GIPR = target: T1, human SNAP-tagged GIPR; experiment: Receptor internalization assay, HEK293A cells expressing human SNAP-tagged GIPR; type: cell-based; conditions: for Absolute hGIPR internalization (AUC): AUC of sigmoid curves up to 1 μM, 60 minutes at 37° C.; for GIPR internalization (in words): compared to native GIP; for Relative hGIPR internalization (%): relative to hGIP 1-42 = 100
human GLP-1R = target: T8, human GLP-1R (Homo sapiens, UniProt P43220); experiment: cAMP assay (HitHunter) in transiently transfected COS-7 cells expressing human GLP-1R; type: cell-based; conditions: for Emax: COS-7, normalized to highest concentration of the endogenous ligand, read-out: Efficacy GLP-1R (Emax); for EC50: cAMP, COS-7 cells, human GLP-1R
T8 construct: host or cells: COS-7
T8 sequence (P43220 24-463): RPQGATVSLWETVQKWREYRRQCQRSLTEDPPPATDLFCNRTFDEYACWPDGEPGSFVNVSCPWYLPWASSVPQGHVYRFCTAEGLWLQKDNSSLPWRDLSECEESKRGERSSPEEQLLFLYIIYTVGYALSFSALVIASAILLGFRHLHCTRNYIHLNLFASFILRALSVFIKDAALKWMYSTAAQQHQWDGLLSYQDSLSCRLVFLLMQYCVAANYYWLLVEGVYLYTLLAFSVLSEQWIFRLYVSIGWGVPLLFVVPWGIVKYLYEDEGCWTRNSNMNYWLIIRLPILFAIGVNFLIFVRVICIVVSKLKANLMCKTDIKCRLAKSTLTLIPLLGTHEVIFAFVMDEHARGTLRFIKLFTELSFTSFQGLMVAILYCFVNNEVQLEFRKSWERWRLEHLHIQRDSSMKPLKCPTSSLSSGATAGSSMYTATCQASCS

human GLP-2R = target: T2, human GLP-2R; experiment: cAMP assay (HitHunter) in transiently transfected COS-7 cells expressing human GLP-2R; type: cell-based; conditions: for Emax: COS-7, normalized to highest concentration of the endogenous ligand, read-out: Efficacy GLP-2R (Emax)
human GIPR = target: T3, human GIPR; experiment: cAMP assay (HitHunter) in transiently transfected COS-7 cells expressing human GIPR; type: cell-based; conditions: for Emax: COS-7, normalized to highest concentration of the endogenous ligand, read-out: Efficacy GIPR (Emax)
human SNP-tagged GLP-2R = target: T4, human SNP-tagged GLP-2R; experiment: Receptor internalization assay, HEK293A cells expressing human SNAP-tagged GLP-2R; type: cell-based; conditions: AUC of sigmoid curves up to 1 μM; 60 minutes at 37° C.
[1] = target: T5, human GLP-2R (glucagon-like peptide-2 …); experiment: cell-based or functional assay
[2] = target: T6, human GIPR (glucose-dependent …); experiment: cell-based or functional assay
[3] = target: T7, Human N-terminally SNAP-tagged GIPR; experiment: cell-based or functional assay
[4] = target: human GLP-1R (glucagon-like peptide-1 receptor) (human, UniProt P43220 24-463); experiment: cell-based or functional assay

Molecule | Absolute hGIPR internalization (AUC) (human SNAP-tagged GIPR) | GIPR internalization (in words) (human SNAP-tagged GIPR) | Relative hGIPR internalization (%) (human SNAP-tagged GIPR) | Emax (human GLP-1R) | Emax (human GLP-2R) | Emax (human GIPR) | EC50 (nM) GLP-2R [1] | Efficacy GLP-2R [1] | logEC50 GLP-2R [1] | Efficacy GIPR [2] | pEC50 GIPR [2] | Absolute hGIPR internalization (AUC) [3] | Relative hGIPR internalization (%) [3] | EC50 (nM) GLP-1R [4] | Efficacy GLP-1R [4] | logEC50 GLP-1R [4] | other results
HADGTFTSDYSTILDKLAARDFINWLIQTKGKKNDWKHNITQK([AEEA-AEEA-γGlu-C18 diacid])-OH [Compound 26] | 16.4 | internalization of the GIPR to a higher extent | 44% | 103% | 112% | 106% |  |  |  |  |  |  |  |  |  |  | EC50 (human GLP-1R; read-out: logEC50 GLP-1R (converted)): 0.0398 nM; EC50 (human GIPR; cAMP, COS-7 cells, human GIPR): 0.316 nM
HADGTFTSDYST[Aib]LDKLAARDFINWLIQTKGKKNDWKHNITQK([AEEA-AEEA-γGlu-C18 diacid])-OH [Compound 27] | 9.0 | internalization of the GIPR to a higher extent | 24% | 115% | 85% | 124% |  |  |  |  |  |  |  |  |  |  | EC50 (human GLP-1R; read-out: EC50 (nM) GLP-1R): 0.05 nM; EC50 (human GLP-2R; cAMP, COS-7 cells, human GLP-2R, read-out: EC50 (nM) GLP-2R): 3.2 nM
hGLP-1: native human glucagon-like peptide-1, endogenous GLP-1R ligand; which form (1-37, 7-36, 7-37) not stated [reference compound] |  |  |  |  |  |  |  |  |  |  |  |  |  |  |  |  | Absolute hGLP-2R internalization (AUC) (human SNP-tagged GLP-2R): 48.6
HADGTFTSDYSTILDNLAARDFINWLIQTKGKK([γGlu-C18 diacid])-OH (N-terminus assumed; SMILES CC[C@H](C)[C@H](NC(=O)[C@H](Cc1ccccc1)NC(=O)[C@H](CC(=O)O)NC(=O)[C@H](CCCNC(=N)N)NC(=O)[C@H](C)NC(=O)[C@H](C)NC(=O)[C@H](CC(C)C)NC(=O)[C@H](CC(N)=O)NC(=O)[C@H](CC(=O)O)NC(=O)[C@H](CC(C)C)NC(=O)[C@@H](NC(=O)[C@@H](NC(=O)[C@H](CO)NC(=O)[C@H](Cc1ccc(O)cc1)NC(=O)[C@H](CC(=O)O)NC(=O)[C@H](CO)NC(=O)[C@@H](NC(=O)[C@H](Cc1ccccc1)NC(=O)[C@@H](NC(=O)CNC(=O)[C@H](CC(=O)O)NC(=O)[C@H](C)NC(=O)[C@@H](N)Cc1c[nH]cn1)[C@@H](C)O)[C@@H](C)O)[C@@H](C)O)[C@@H](C)CC)C(=O)N[C@@H](CC(N)=O)C(=O)N[C@@H](Cc1c[nH]c2ccccc12)C(=O)N[C@@H](CC(C)C)C(=O)N[C@H](C(=O)N[C@@H](CCC(N)=O)C(=O)N[C@H](C(=O)N[C@@H](CCCCN)C(=O)NCC(=O)N[C@@H](CCCCN)C(=O)N[C@@H](CCCCNC(=O)CC[C@H](NC(=O)CCCCCCCCCCCCCCCCC(=O)O)C(=O)O)C(=O)O)[C@@H](C)O)[C@@H](C)CC) [Compound 19] |  |  |  |  |  |  | 31.6 nM | 94 | 7.5 | 92 | 9.2 | 8.9 AUC | 24% | 0.06 nM | 106 | 10.2 | 
HADGTFTSDYSTILDKK([AEEA-AEEA-γGlu-C18 diacid])AARDFINWLIQTKGKKNDWKHNITQ-OH [Compound 23] |  |  |  |  |  |  | 3.5 nM | 95 | 8.5 | 82 | 8.2 | 1.2 AUC | 3% | 0.05 nM | 105 | 10.3 | EC50 (nM) GIPR [2]: 7.08 nM
